Data from PMC8202330 (2021).

B1: MYC-SCOC (isoform 3) WT [human] / GFP-GABARAP [not stated] (parent complex)
chain 1: MDGSRKEEEEDSTFTNISLADDIDHSSRILYPRPKSLLPKMMNADMDVDAENQVELEEKTRLINQVLELQHTLEDLSARVDAVKEENLKLKSENQVLGQYIENLMSASSVFQTTDTKSKRK
chain 2: MKFVYKEEHPFEKRRSEGEKIRKKYPDRVPVIVEKAPKARIGDLDKKKYLVPSDLTVGQFYFLIRKRIHLRAEDALFFFVNNVIPPTSATMGQLYQEHHEEDFFLYIAYSDESVYGL

Variants of: B1
Experiment: GFP-Trap immunoprecipitation, Western blot quantification; HEK293A lysates mixed prior to IP; mean ± s.d.; n = 3; read off a plot

Variant | response
chain 1 S12E, chain 1 T15E | ~63 % binding
chain 1 S18E | ~18 % binding
chain 1 S12E, chain 1 T13E, chain 1 T15E, chain 1 S18E | ~100 % binding
